# Test results: patent US20120189666A1, “PHARMACEUTICAL FORMULATIONS CONTAINING MICROPARTICLES OR NANOPARTICLES OF A DELIVERY AGENT” (priority 2004, published 2012)
# Several values for one entry are separate records, joined by “and”; a condition that tells them apart may be missing. Equal entries are not always repeated. Where two headings read alike, the source gives them in different places.
# Assays:
# [1] = for AUC0->∞ / C0: individual animals
# Source text: (§1) This value was assumed to be constant in the estimates of absolute bioavailability.
# [2] = Source text: as §1
# (§2) The portal bioavailability provides an estimate of drug absorption from oral delivery. […] This value is used to estimate bioavailability relative to subcutaneous.
# [3] = Insulin from subcutaneous (SC) administration; details: insulin dose 0.05 mg/kg
# Source text: as §1, §2
# [4] = Estimates of bioavailability (absolute, portal, relative to subcutaneous); details: rat model
# Source text: as §1, §2
# [5] = Insulin and 4-CNAB stability in simulated gastric fluid, HPLC; details: for Insulin % of theoretical: SGF
# Procedure: The SGF was prepared with and without pepsin, a gastric enzyme. SGF pH 1.2 was prepared as per the USP NF 26 guidelines. 2 g sodium chloride and 3.2 g of pepsin were weighed and added to a suitable container, and deionized water was added to reach one liter in volume. If necessary, the pH was adjusted to 1.2 by addition of concentrated HCl or NaOH. A second SGF solution omitting the pepsin was also prepared.
# Four 50 ml samples of SGF (two with pepsin and two without) were placed into a jacketed vessel connected to a circulating water bath set at 37° C. The solutions were stirred with magnetic stir bars for ten minutes to allow the solutions to reach 37° C. and reach thermal equilibrium.
# The term “% of theoretical” as used herein, means the percent of the concentration (mg/mL) of withdrawn solution at the time-point the sample was taken as compared to the theoretical concentration (mg/mL) of the measuring component for experiment. The standard of deviation for the HPLC analysis is ±5%.
# [6] = Stability of insulin in simulated intestinal fluid, HPLC
# Procedure: The SIF solutions were prepared with and without pancreatic enzyme. SIF pH 7.5 was prepared as per the USP NF 26 guidelines. SIF was prepared by addition of 6.8 g monobasic potassium phosphate and 10 g of pancreatin into a suitable vessel, and deionized water was added to reach a total volume of one liter. If necessary, the pH was adjusted to 7.5 by addition of 0.2 N sodium hydroxide. A second SIF solution omitting the pancreatin, an intestinal enzyme, was also prepared.
# Four 50 ml samples of SIF (two with pancreatin and two without) were placed into a jacketed vessel connected to a circulating water bath set at 37° C. The solutions were stirred with magnetic stir bars for ten minutes to allow the solutions to reach 37° C. and reach thermal equilibrium.
substance,measurement,setting,value
Insulin: Recombinant human zinc insulin,"C0->∞/Dose, Average","[1]; IV, all doses (2.5, 8, 9 μg/kg)",0.0053 kg/mL
same,AUC0->∞,"[1]; IV, dose 8 μg/kg",99.35 ng·min/mL and 99.32 ng·min/mL and 103.4 ng·min/mL
same,C0,"[1]; IV, dose 8 μg/kg",50.67 ng/mL and 52.64 ng/mL and 49.63 ng/mL
same,"AUC0->∞, X ± SD","[1]; IV, dose 8 μg/kg, n = 3",100.7 ± 2.4 ng·min/mL
same,"AUC0->∞/Dose, X ± SD","[1]; IV, dose 8 μg/kg, n = 3",0.0126 ± 0.0003 kg·min/mL
same,"Vd, X ± SD","[1]; IV, dose 8 μg/kg, n = 3",0.157 ± 0.005 L/kg
same,AUC0->∞,"[1]; IV, dose 9 μg/kg",99.55 ng·min/mL and 75.67 ng·min/mL and 122.89 ng·min/mL
same,C0,"[1]; IV, dose 9 μg/kg",46.79 ng/mL and 36.32 ng/mL and 55.30 ng/mL
same,"AUC0->∞, X ± SD","[1]; IV, dose 9 μg/kg, n = 3",99.4 ± 23.6 ng·min/mL
same,"AUC0->∞/Dose, X ± SD","[1]; IV, dose 9 μg/kg, n = 3",0.0110 ± 0.0026 kg·min/mL
same,"C0, X ± SD","[1]; IV, dose 9 μg/kg, n = 3",46.1 ± 9.5 ng/mL
same,"Vd, X ± SD","[1]; IV, dose 9 μg/kg, n = 3",0.201 ± 0.043 L/kg
same,"kel, X ± SD","[1]; IV, dose 9 μg/kg, n = 3",0.47 ± 0.02 min⁻¹
same,"AUC0->∞/Dose, X ± SD","[1]; IV, dose […], n = 5",0.0062 ± 0.0011 kg·min/mL
same,"Vd, X ± SD","[1]; IV, dose […], n = 5",0.219 ± 0.068 L/kg
same,average insulin AUC0→∞/Dose,[1]; intravenous dosing,0.0093 kg·min/mL
same,FPE (fH),[2]; individual animals,0.18
same,"AUC-IP, Average","[2]; portal administration, n = 5",9.65
same,maximum absolute bioavailability from oral delivery (100% GI absorption into the portal vein),"[2]; rat model, from intraportal administration",approximately 60%
same,"AUC-JV, Average","[2]; systemic administration, n = 5",15.53
same,Tmax,"[3]; per study, 0.05 mg/kg",30 min
same,Glucose,"[3]; time 0, study mean, 0.05 mg/kg",83 mg/dL and 73 mg/dL and 60 mg/dL and 68 mg/dL and 65 mg/dL and 70 mg/dL
same,Glucose,"[3]; time 15, study mean, 0.05 mg/kg",66 mg/dL and 42 mg/dL and 40 mg/dL and 45 mg/dL and 59 mg/dL
same,Glucose,"[3]; time 30, study mean, 0.05 mg/kg",60 mg/dL and 59 mg/dL and 38 mg/dL and 39 mg/dL and 64 mg/dL
same,Glucose,"[3]; time 45, study mean, 0.05 mg/kg",61 mg/dL and 64 mg/dL and 42 mg/dL and 36 mg/dL and 40 mg/dL and 69 mg/dL
same,Insulin,"[3]; time 180, study mean",8.30 uU/ml
same,absolute bioavailability from SC,[4],approximately 56%
same,insulin degraded,"[5]; SGF containing pepsin, first sampling point",97%
same,insulin remained,"[5]; SGF containing pepsin, first sampling point (0 minutes), 37° C.",3.0%
same,time insulin is stable,[5]; SGF without pepsin,≥ 2 h
same,Insulin % of theoretical,"[5]; insulin with 4-CNAB and enzymes (pepsin), 37° C., 0 minutes",3.0%
same,Insulin % of theoretical,"[5]; insulin with 4-CNAB and no enzymes, 24 h",0%
same,Insulin % of theoretical,"[5]; insulin without 4-CNAB and with enzymes (pepsin), 37° C., 0 minutes",3.0%
same,Insulin % of theoretical,"[5]; insulin without 4-CNAB and without enzymes, 24 h",0%
same,stability of insulin,[6]; SIF in presence of the enzyme (pancreatin),degrades
same,stability of insulin,[6]; SIF without pancreatin,stable
same,Insulin % of theoretical,"[6]; SIF, insulin with 4-CNAB and enzymes (pancreatin), 6 minutes",5.4%
